The values below come from publication PMC8534003 (2021).

Where no end group is shown, it is not given here. The star is where a group is joined. Biotin = O=C1N[C@H]2[C@H](CS[C@H]2CCCCC(=O)*)N1

The target of the test is human recombinant FGF-2 (human, UniProt P09038 143-288).
Sequence of human recombinant FGF-2 (P09038 143-288): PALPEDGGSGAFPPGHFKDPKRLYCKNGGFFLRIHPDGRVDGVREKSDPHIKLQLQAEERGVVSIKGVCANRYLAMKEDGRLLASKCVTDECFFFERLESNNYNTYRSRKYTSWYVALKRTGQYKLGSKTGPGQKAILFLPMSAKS

B1: biotinylated CXCL9(74-103) (peptide)
peptide: Biotin-KKKQKNGKKHQKKKVLKVRKSQRSRQKKTT
B1: the off-rate (koff) was 0.00207 s⁻¹.
